# According to the supplement of paper PMC6757056:
# ± gives the standard deviation of the averaged measurements.
# B1: library; a variant is named by its letters at N, in order (parent)
# chain: GCUGUCACCGGAAUACCAGCAUCGUCUUGAUGCCCUUGGAAGUCCGGUCUGAUGAGUCCNNNNNGGACGAAACAGC
# What was measured:
# theophylline [1] = variants of: B1; test: FACS-Seq fitted mean relative fluorescence mCherry/BFP without ligand (log10 relative fluorescence); higher = higher reporter protein expression; conditions: HEK293T, ligand present: no
# Method: (§1)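 Hammerhead (sTRSV) ribozyme switch libraries with a ligand aptamer grafted on stem I and a randomized N4-6 loop II, cloned into the 3' UTR of mCherry and transiently transfected into HEK293T cells; RNA-Seq 72 h post transfection with ligand added 1 h before transfection; RNA read count / plasmid DNA read count normalized to the non-cleaving sTRSVctl (x100), log10; sequences with >100 DNA reads. FACS-Seq: lentiviral library sorted into 6 bins after 48 h ligand, log-normal fit mean of mCherry/BFP scaled to controls. Printed sequences are partial switch sequences.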
# theophylline [2] = variants of: B1; test: normalized RNA/DNA level with ligand (relative to sTRSVctl = 100) (log10 (% of sTRSVctl)); higher = less ribozyme self-cleavage, higher mRNA level; conditions: ligand concentration (+) RNA-Seq: 5 mM, HEK293T, reporter: mCherry (pCS4076), ligand present: yes
# Method: as §1
# theophylline [3] = variants of: B1; test: normalized RNA/DNA level without ligand (relative to sTRSVctl = 100) (log10 (% of sTRSVctl)); higher = less ribozyme self-cleavage, higher mRNA level; conditions: HEK293T, reporter: mCherry (pCS4076), ligand present: no
# Method: as §1
# theophylline [4] = variants of: B1; test: FACS-Seq fitted mean relative fluorescence mCherry/BFP with ligand (log10 relative fluorescence); ligand concentration (+) FACS-Seq: 1 mM; higher = higher reporter protein expression; conditions: HEK293T, ligand present: yes
# Method: as §1
Variant,FACS-Seq fitted mean (log10) (theophylline [1]),normalized RNA/DNA level with ligand (log10) (theophylline [2]),normalized RNA/DNA level without ligand (log10) (theophylline [3]),FACS-Seq fitted mean (log10) (theophylline [4])
GAACC,0.828 ± 0.017,2 ± 0.024,1.87 ± 0.13,0.834 ± 0.11
UACCA,0.405 ± 0.01,1.9 ± 0.086,1.82 ± 0.098,0.436 ± 0.11
UACCC,0.622 ± 0.13,2.02 ± 0.026,2.04 ± 0.048,0.599 ± 0.045
UACCG,1.2 ± 0.1,2.01 ± 0.067,2 ± 0.032,1.09 ± 0.086
UACCU,-0.0361 ± 0.0029,1.988 ± 0.00013,1.99 ± 0.099,0.0166 ± 0.074
AACAG,0.587 ± 0.0063,1.855 ± 0.014,1.78 ± 0.055,0.677 ± 0.035
AACAU,0.214 ± 0.0061,1.93 ± 0.1,1.75 ± 0.067,0.439 ± 0.045
AACAA,0.377 ± 0.039,1.99 ± 0.086,1.45 ± 0.25,0.704 ± 0.013
AACAC,0.834 ± 0.025,1.94 ± 0.048,1.91 ± 0.075,0.925 ± 0.089
UAGCG,1.09 ± 0.18,1.94 ± 0.066,1.9 ± 0.019,1.08 ± 0.016
UAGCU,1.23 ± 0.19,2.01 ± 0.048,1.93 ± 0.068,1.14 ± 0.05
UAGCA,0.6175 ± 0.0054,1.95 ± 0.052,1.55 ± 0.091,0.757 ± 0.046
CACCU,0.774 ± 0.091,2.06 ± 0.075,1.78 ± 0.097,0.9241 ± 4.2e-05
CACCA,0.7294 ± 0.00094,1.97 ± 0.083,1.8 ± 0.071,0.792 ± 0.053
CACCC,0.8 ± 0.07,1.92 ± 0.06,1.93 ± 0.024,0.762 ± 0.018
UAAGG,0.645 ± 0.086,2.1 ± 0.067,1.89 ± 0.041,0.739 ± 0.044
UAAGC,1.08 ± 0.011,1.94 ± 0.059,1.92 ± 0.1,1.04 ± 0.073
UAAGA,-0.11 ± 0.071,1.9752 ± 0.00034,1.48 ± 0.16,0.22 ± 0.072
UAAGU,0.651 ± 0.24,2.03 ± 0.044,1.86 ± 0.088,0.751 ± 0.013
AAGGG,0.3836 ± 0.0021,1.85 ± 0.028,1.75 ± 0.037,0.381 ± 0.037
AAGGC,0.518 ± 0.013,1.93 ± 0.046,1.89 ± 0.079,0.476 ± 0.023
AAGGA,0.338 ± 0.022,2 ± 0.025,1.43 ± 0.099,0.8561 ± 0.0071
AACUA,0.84 ± 0.078,2.01 ± 0.045,1.77 ± 0.053,1 ± 0.015
AACUC,0.94 ± 0.044,2.01 ± 0.11,1.916 ± 0.016,0.924 ± 0.031

Variant,FACS-Seq fitted mean (log10) (theophylline [1]),normalized RNA/DNA level with ligand (log10) (theophylline [2]),normalized RNA/DNA level without ligand (log10) (theophylline [3]),FACS-Seq fitted mean (log10) (theophylline [4])
AACUU,1.01 ± 0.076,1.9847 ± 0.0011,1.89 ± 0.059,0.981 ± 0.015
AACUG,0.814 ± 0.11,2 ± 0.12,1.8 ± 0.18,0.939 ± 0.032
GAAAC,0.594 ± 0.018,1.97 ± 0.025,1.77 ± 0.072,0.621 ± 0.075
GAAAA,0.381 ± 0.0065,1.96 ± 0.033,1.3 ± 0.14,0.809 ± 0.014
GAAAG,1.046 ± 0.0068,1.96 ± 0.022,1.66 ± 0.044,1.08 ± 0.14
GAAAU,0.796 ± 0.0017,2.01 ± 0.038,1.71 ± 0.059,1.04 ± 0.097
GAAGA,0.532 ± 0.0054,1.89 ± 0.051,1.46 ± 0.36,0.761 ± 0.092
GAAGU,0.25 ± 0.013,1.94 ± 0.12,1.68 ± 0.17,0.483 ± 0.031
GAAGG,0.991 ± 0.26,1.87 ± 0.011,1.72 ± 0.12,0.957 ± 0.057
AAGAA,0.0676 ± 0.046,1.94 ± 0.04,1.36 ± 0.025,0.545 ± 0.015
AAGAU,0.919 ± 0.085,1.97 ± 0.06,1.69 ± 0.052,1.06 ± 0.11
AAGAC,0.968 ± 0.16,1.91 ± 0.06,1.86 ± 0.14,0.922 ± 0.12
AAGAG,0.563 ± 0.11,1.97 ± 0.099,1.67 ± 0.089,0.728 ± 0.02
GACUG,0.5397 ± 0.0016,1.98 ± 0.076,1.804 ± 0.0069,0.61 ± 0.081
GACUU,0.702 ± 0.12,2.1 ± 0.051,1.79 ± 0.038,0.696 ± 0.051
CACAA,0.062 ± 0.032,2.014 ± 0.0084,1.56 ± 0.11,0.3195 ± 0.0011
CACAC,0.945 ± 0.11,2.02 ± 0.044,1.88 ± 0.11,1.03 ± 0.2
CACAU,0.589 ± 0.032,1.964 ± 0.0051,1.68 ± 0.099,0.693 ± 0.025
AAAGC,1.03 ± 0.054,2.03 ± 0.041,1.79 ± 0.043,1.04 ± 0.14
AAAGG,0.199 ± 0.022,1.976 ± 0.019,1.71 ± 0.033,0.426 ± 0.04
AAAGU,0.9033 ± 0.0058,1.923 ± 0.018,1.58 ± 0.018,1.1 ± 0.046
AAAGA,-0.192 ± 0.043,1.92 ± 0.08,1.32 ± 0.06,0.259 ± 0.0043
UACGU,0.851 ± 0.024,2.022 ± 0.012,1.92 ± 0.014,0.816 ± 0.023
UACGA,0.287 ± 0.021,2.07 ± 0.025,1.72 ± 0.097,0.324 ± 0.024

Variant,FACS-Seq fitted mean (log10) (theophylline [1]),normalized RNA/DNA level with ligand (log10) (theophylline [2]),normalized RNA/DNA level without ligand (log10) (theophylline [3]),FACS-Seq fitted mean (log10) (theophylline [4])
UACGC,0.81 ± 0.14,2.01 ± 0.038,1.98 ± 0.17,0.916 ± 0.039
AAAAU,0.464 ± 0.031,2.02 ± 0.028,1.68 ± 0.028,0.572 ± 0.045
AAAAC,0.834 ± 0.057,1.944 ± 0.014,1.77 ± 0.066,0.873 ± 0.075
AAAAG,0.487 ± 0.041,1.971 ± 0.00093,1.66 ± 0.028,0.638 ± 0.13
AAAAA,-0.362 ± 0.072,1.85 ± 0.075,1.11 ± 0.061,0.356 ± 0.066
CAACU,0.64 ± 0.013,1.98 ± 0.048,1.73 ± 0.17,0.815 ± 0.097
CAACA,0.729 ± 0.046,1.98 ± 0.018,1.53 ± 0.0043,0.886 ± 0.058
CAACC,1.06 ± 0.065,1.91 ± 0.059,1.994 ± 0.0033,1.02 ± 0.03
GAGCC,0.935 ± 0.11,1.953 ± 0.015,1.849 ± 0.013,0.918 ± 0.019
GAGCG,0.793 ± 0.054,1.94 ± 0.066,1.79 ± 0.033,0.81 ± 0.05
GAGCU,0.479 ± 0.21,1.96 ± 0.14,1.8 ± 0.11,0.5269 ± 0.0042
AAACU,0.552 ± 0.079,1.97 ± 0.093,1.79 ± 0.033,0.604 ± 0.0015
AAACA,-0.0142 ± 0.16,1.9113 ± 0.00046,1.72 ± 0.14,0.172 ± 0.072
AAACG,0.558 ± 0.061,2 ± 0.03,1.84 ± 0.12,0.652 ± 0.062
AAACC,0.153 ± 0.14,1.96 ± 0.097,1.91 ± 0.14,0.18 ± 0.0037
GAGGG,0.948 ± 0.031,1.91 ± 0.22,1.67 ± 0.03,1.07 ± 0.07
UAGAG,0.823 ± 0.13,1.94 ± 0.063,1.73 ± 0.093,0.842 ± 0.013
UAGAA,-0.0982 ± 0.13,1.91 ± 0.11,1.43 ± 0.016,0.448 ± 0.028
UAGAU,0.687 ± 0.045,2.02 ± 0.036,1.8244 ± 0.0014,0.828 ± 0.09
UAGAC,0.814 ± 0.036,1.91 ± 0.03,1.91 ± 0.09,0.723 ± 0.008
GAAUC,0.7173 ± 0.0037,1.962 ± 0.011,1.855 ± 0.015,0.683 ± 0.059
GAAUU,0.234 ± 0.038,2.02 ± 0.045,1.75 ± 0.018,0.4307 ± 0.002
GAAUA,1.08 ± 0.19,1.85 ± 0.068,1.627 ± 0.0033,0.942 ± 0.085
GAAUG,0.627 ± 0.023,1.9 ± 0.028,1.6 ± 0.093,0.713 ± 0.037
